# Data: the Human Domainome abundance scans (Beltran et al. 2025)
# ± gives the uncertainty stated by the source.
# B1: Retinoic acid receptor beta, residues 85 to 161; numbered along this chain, P10826 (parent)
# chain: YKPCFVCQDKSSGYHYGVSACEGCKGFFRRSIQKNMIYTCHRDKNCVINKVTRNRCQYCRLQKCFEVGMSKESVRND
# Variants of: B1
# Experiment: abundance fitness (aPCA) (normalised: wild type 0, dead -1); higher = more abundant; growth selection in yeast, the domain comes from the species named
# Conditions: Homo sapiens
row,Variant,abundance fitness
1,YKPCFVCQDKSSGYHYGVSACEGCKGFFRRSIQKNMIYTCHRDKNCVINKVTRNRCQYCRLQKCFEVMMSKESVRND [G68M],-0.77 ± 0.17
2,YKPCFVCQDKSSGYHYGVSACEGCKGFFRRSIQKNMIYTCHRDKNCVINKVTRNRCQYCRLQKCFEVNMSKESVRND [G68N],-0.338 ± 0.12
3,YKPCFVCQDKSSGYHYGVSACEGCKGFFRRSIQKNMIYTCHRDKNCVINKVTRNRCQYCRLQKCFEVPMSKESVRND [G68P],-0.738 ± 0.17
4,YKPCFVCQDKSSGYHYGVSACEGCKGFFRRSIQKNMIYTCHRDKNCVINKVTRNRCQYCRLQKCFEVQMSKESVRND [G68Q],-0.698 ± 0.17
5,YKPCFVCQDKSSGYHYGVSACEGCKGFFRRSIQKNMIYTCHRDKNCVINKVTRNRCQYCRLQKCFEVRMSKESVRND [G68R],-0.681 ± 0.078
6,YKPCFVCQDKSSGYHYGVSACEGCKGFFRRSIQKNMIYTCHRDKNCVINKVTRNRCQYCRLQKCFEVSMSKESVRND [G68S],-0.595 ± 0.075
7,YKPCFVCQDKSSGYHYGVSACEGCKGFFRRSIQKNMIYTCHRDKNCVINKVTRNRCQYCRLQKCFEVTMSKESVRND [G68T],-0.687 ± 0.12
8,YKPCFVCQDKSSGYHYGVSACEGCKGFFRRSIQKNMIYTCHRDKNCVINKVTRNRCQYCRLQKCFEVVMSKESVRND [G68V],-0.81 ± 0.12
9,YKPCFVCQDKSSGYHYGVSACEGCKGFFRRSIQKNMIYTCHRDKNCVINKVTRNRCQYCRLQKCFEVWMSKESVRND [G68W],-0.779 ± 0.12
10,YKPCFVCQDKSSGYHYGVSACEGCKGFFRRSIQKNMIYTCHRDKNCVINKVTRNRCQYCRLQKCFEVYMSKESVRND [G68Y],-1.05 ± 0.41
11,YKPCFVCQDKSSGYHYGVSACEGCKGFFRRSIQKNMIYTCHRDKNCVINKVTRNRCQYCRLQKCFEVGASKESVRND [M69A],-0.81 ± 0.16
12,YKPCFVCQDKSSGYHYGVSACEGCKGFFRRSIQKNMIYTCHRDKNCVINKVTRNRCQYCRLQKCFEVGCSKESVRND [M69C],-0.31 ± 0.16
13,YKPCFVCQDKSSGYHYGVSACEGCKGFFRRSIQKNMIYTCHRDKNCVINKVTRNRCQYCRLQKCFEVGDSKESVRND [M69D],-0.498 ± 0.26
14,YKPCFVCQDKSSGYHYGVSACEGCKGFFRRSIQKNMIYTCHRDKNCVINKVTRNRCQYCRLQKCFEVGESKESVRND [M69E],-0.751 ± 0.21
15,YKPCFVCQDKSSGYHYGVSACEGCKGFFRRSIQKNMIYTCHRDKNCVINKVTRNRCQYCRLQKCFEVGFSKESVRND [M69F],-0.406 ± 0.27
16,YKPCFVCQDKSSGYHYGVSACEGCKGFFRRSIQKNMIYTCHRDKNCVINKVTRNRCQYCRLQKCFEVGGSKESVRND [M69G],-0.813 ± 0.11
17,YKPCFVCQDKSSGYHYGVSACEGCKGFFRRSIQKNMIYTCHRDKNCVINKVTRNRCQYCRLQKCFEVGISKESVRND [M69I],-0.142 ± 0.38
18,YKPCFVCQDKSSGYHYGVSACEGCKGFFRRSIQKNMIYTCHRDKNCVINKVTRNRCQYCRLQKCFEVGKSKESVRND [M69K],-0.983 ± 0.35
19,YKPCFVCQDKSSGYHYGVSACEGCKGFFRRSIQKNMIYTCHRDKNCVINKVTRNRCQYCRLQKCFEVGNSKESVRND [M69N],-0.725 ± 0.28
20,YKPCFVCQDKSSGYHYGVSACEGCKGFFRRSIQKNMIYTCHRDKNCVINKVTRNRCQYCRLQKCFEVGPSKESVRND [M69P],-0.917 ± 0.39
21,YKPCFVCQDKSSGYHYGVSACEGCKGFFRRSIQKNMIYTCHRDKNCVINKVTRNRCQYCRLQKCFEVGRSKESVRND [M69R],-0.741 ± 0.11
22,YKPCFVCQDKSSGYHYGVSACEGCKGFFRRSIQKNMIYTCHRDKNCVINKVTRNRCQYCRLQKCFEVGTSKESVRND [M69T],-0.515 ± 0.21
23,YKPCFVCQDKSSGYHYGVSACEGCKGFFRRSIQKNMIYTCHRDKNCVINKVTRNRCQYCRLQKCFEVGVSKESVRND [M69V],-0.591 ± 0.096
24,YKPCFVCQDKSSGYHYGVSACEGCKGFFRRSIQKNMIYTCHRDKNCVINKVTRNRCQYCRLQKCFEVGWSKESVRND [M69W],-0.235 ± 0.066

row,Variant,abundance fitness
1,YKPCFVCQDKSSGYHYGVSACEGCKGFFRRSIQKNMIYTCHRDKNCVINKVTRNRCQYCRLQKCFEVGYSKESVRND [M69Y],-0.588 ± 0.32
2,YKPCFVCQDKSSGYHYGVSACEGCKGFFRRSIQKNMIYTCHRDKNCVINKVTRNRCQYCRLQKCFEVGMAKESVRND [S70A],-0.047 ± 0.047
3,YKPCFVCQDKSSGYHYGVSACEGCKGFFRRSIQKNMIYTCHRDKNCVINKVTRNRCQYCRLQKCFEVGMCKESVRND [S70C],-0.076 ± 0.067
4,YKPCFVCQDKSSGYHYGVSACEGCKGFFRRSIQKNMIYTCHRDKNCVINKVTRNRCQYCRLQKCFEVGMDKESVRND [S70D],-0.085 ± 0.067
5,YKPCFVCQDKSSGYHYGVSACEGCKGFFRRSIQKNMIYTCHRDKNCVINKVTRNRCQYCRLQKCFEVGMEKESVRND [S70E],0.039 ± 0.052
6,YKPCFVCQDKSSGYHYGVSACEGCKGFFRRSIQKNMIYTCHRDKNCVINKVTRNRCQYCRLQKCFEVGMFKESVRND [S70F],-0.111 ± 0.089
7,YKPCFVCQDKSSGYHYGVSACEGCKGFFRRSIQKNMIYTCHRDKNCVINKVTRNRCQYCRLQKCFEVGMGKESVRND [S70G],-0.184 ± 0.037
8,YKPCFVCQDKSSGYHYGVSACEGCKGFFRRSIQKNMIYTCHRDKNCVINKVTRNRCQYCRLQKCFEVGMHKESVRND [S70H],0.022 ± 0.099
9,YKPCFVCQDKSSGYHYGVSACEGCKGFFRRSIQKNMIYTCHRDKNCVINKVTRNRCQYCRLQKCFEVGMIKESVRND [S70I],0.262 ± 0.14
10,YKPCFVCQDKSSGYHYGVSACEGCKGFFRRSIQKNMIYTCHRDKNCVINKVTRNRCQYCRLQKCFEVGMKKESVRND [S70K],0.078 ± 0.05
11,YKPCFVCQDKSSGYHYGVSACEGCKGFFRRSIQKNMIYTCHRDKNCVINKVTRNRCQYCRLQKCFEVGMLKESVRND [S70L],0.071 ± 0.053
12,YKPCFVCQDKSSGYHYGVSACEGCKGFFRRSIQKNMIYTCHRDKNCVINKVTRNRCQYCRLQKCFEVGMMKESVRND [S70M],-0.115 ± 0.092
13,YKPCFVCQDKSSGYHYGVSACEGCKGFFRRSIQKNMIYTCHRDKNCVINKVTRNRCQYCRLQKCFEVGMPKESVRND [S70P],-0.304 ± 0.094
14,YKPCFVCQDKSSGYHYGVSACEGCKGFFRRSIQKNMIYTCHRDKNCVINKVTRNRCQYCRLQKCFEVGMQKESVRND [S70Q],-0.009 ± 0.074
15,YKPCFVCQDKSSGYHYGVSACEGCKGFFRRSIQKNMIYTCHRDKNCVINKVTRNRCQYCRLQKCFEVGMRKESVRND [S70R],-0.053 ± 0.039
16,YKPCFVCQDKSSGYHYGVSACEGCKGFFRRSIQKNMIYTCHRDKNCVINKVTRNRCQYCRLQKCFEVGMTKESVRND [S70T],0.067 ± 0.053
17,YKPCFVCQDKSSGYHYGVSACEGCKGFFRRSIQKNMIYTCHRDKNCVINKVTRNRCQYCRLQKCFEVGMVKESVRND [S70V],0.038 ± 0.044
18,YKPCFVCQDKSSGYHYGVSACEGCKGFFRRSIQKNMIYTCHRDKNCVINKVTRNRCQYCRLQKCFEVGMWKESVRND [S70W],-0.417 ± 0.065
19,YKPCFVCQDKSSGYHYGVSACEGCKGFFRRSIQKNMIYTCHRDKNCVINKVTRNRCQYCRLQKCFEVGMYKESVRND [S70Y],-0.291 ± 0.098
20,YKPCFVCQDKSSGYHYGVSACEGCKGFFRRSIQKNMIYTCHRDKNCVINKVTRNRCQYCRLQKCFEVGMSAESVRND [K71A],-0.027 ± 0.053
21,YKPCFVCQDKSSGYHYGVSACEGCKGFFRRSIQKNMIYTCHRDKNCVINKVTRNRCQYCRLQKCFEVGMSCESVRND [K71C],-0.148 ± 0.072
22,YKPCFVCQDKSSGYHYGVSACEGCKGFFRRSIQKNMIYTCHRDKNCVINKVTRNRCQYCRLQKCFEVGMSDESVRND [K71D],-0.085 ± 0.066
23,YKPCFVCQDKSSGYHYGVSACEGCKGFFRRSIQKNMIYTCHRDKNCVINKVTRNRCQYCRLQKCFEVGMSEESVRND [K71E],0.103 ± 0.048
24,YKPCFVCQDKSSGYHYGVSACEGCKGFFRRSIQKNMIYTCHRDKNCVINKVTRNRCQYCRLQKCFEVGMSFESVRND [K71F],-0.189 ± 0.087

row,Variant,abundance fitness
1,YKPCFVCQDKSSGYHYGVSACEGCKGFFRRSIQKNMIYTCHRDKNCVINKVTRNRCQYCRLQKCFEVGMSGESVRND [K71G],-0.004 ± 0.038
2,YKPCFVCQDKSSGYHYGVSACEGCKGFFRRSIQKNMIYTCHRDKNCVINKVTRNRCQYCRLQKCFEVGMSHESVRND [K71H],-0.24 ± 0.12
3,YKPCFVCQDKSSGYHYGVSACEGCKGFFRRSIQKNMIYTCHRDKNCVINKVTRNRCQYCRLQKCFEVGMSIESVRND [K71I],-0.078 ± 0.099
4,YKPCFVCQDKSSGYHYGVSACEGCKGFFRRSIQKNMIYTCHRDKNCVINKVTRNRCQYCRLQKCFEVGMSLESVRND [K71L],-0.027 ± 0.042
5,YKPCFVCQDKSSGYHYGVSACEGCKGFFRRSIQKNMIYTCHRDKNCVINKVTRNRCQYCRLQKCFEVGMSMESVRND [K71M],-0.104 ± 0.054
6,YKPCFVCQDKSSGYHYGVSACEGCKGFFRRSIQKNMIYTCHRDKNCVINKVTRNRCQYCRLQKCFEVGMSNESVRND [K71N],-0.04 ± 0.095
7,YKPCFVCQDKSSGYHYGVSACEGCKGFFRRSIQKNMIYTCHRDKNCVINKVTRNRCQYCRLQKCFEVGMSPESVRND [K71P],-0.154 ± 0.089
8,YKPCFVCQDKSSGYHYGVSACEGCKGFFRRSIQKNMIYTCHRDKNCVINKVTRNRCQYCRLQKCFEVGMSQESVRND [K71Q],-0.007 ± 0.072
9,YKPCFVCQDKSSGYHYGVSACEGCKGFFRRSIQKNMIYTCHRDKNCVINKVTRNRCQYCRLQKCFEVGMSRESVRND [K71R],-0.102 ± 0.041
10,YKPCFVCQDKSSGYHYGVSACEGCKGFFRRSIQKNMIYTCHRDKNCVINKVTRNRCQYCRLQKCFEVGMSSESVRND [K71S],-0.005 ± 0.051
11,YKPCFVCQDKSSGYHYGVSACEGCKGFFRRSIQKNMIYTCHRDKNCVINKVTRNRCQYCRLQKCFEVGMSTESVRND [K71T],0.067 ± 0.067
12,YKPCFVCQDKSSGYHYGVSACEGCKGFFRRSIQKNMIYTCHRDKNCVINKVTRNRCQYCRLQKCFEVGMSVESVRND [K71V],-0.151 ± 0.041
13,YKPCFVCQDKSSGYHYGVSACEGCKGFFRRSIQKNMIYTCHRDKNCVINKVTRNRCQYCRLQKCFEVGMSWESVRND [K71W],-0.139 ± 0.045
14,YKPCFVCQDKSSGYHYGVSACEGCKGFFRRSIQKNMIYTCHRDKNCVINKVTRNRCQYCRLQKCFEVGMSYESVRND [K71Y],-0.216 ± 0.1
15,YKPCFVCQDKSSGYHYGVSACEGCKGFFRRSIQKNMIYTCHRDKNCVINKVTRNRCQYCRLQKCFEVGMSKASVRND [E72A],-0.113 ± 0.048
16,YKPCFVCQDKSSGYHYGVSACEGCKGFFRRSIQKNMIYTCHRDKNCVINKVTRNRCQYCRLQKCFEVGMSKCSVRND [E72C],-0.075 ± 0.081
17,YKPCFVCQDKSSGYHYGVSACEGCKGFFRRSIQKNMIYTCHRDKNCVINKVTRNRCQYCRLQKCFEVGMSKDSVRND [E72D],0.127 ± 0.059
18,YKPCFVCQDKSSGYHYGVSACEGCKGFFRRSIQKNMIYTCHRDKNCVINKVTRNRCQYCRLQKCFEVGMSKFSVRND [E72F],-0.337 ± 0.13
19,YKPCFVCQDKSSGYHYGVSACEGCKGFFRRSIQKNMIYTCHRDKNCVINKVTRNRCQYCRLQKCFEVGMSKGSVRND [E72G],-0.128 ± 0.038
20,YKPCFVCQDKSSGYHYGVSACEGCKGFFRRSIQKNMIYTCHRDKNCVINKVTRNRCQYCRLQKCFEVGMSKHSVRND [E72H],-0.117 ± 0.12
21,YKPCFVCQDKSSGYHYGVSACEGCKGFFRRSIQKNMIYTCHRDKNCVINKVTRNRCQYCRLQKCFEVGMSKISVRND [E72I],-0.184 ± 0.14
22,YKPCFVCQDKSSGYHYGVSACEGCKGFFRRSIQKNMIYTCHRDKNCVINKVTRNRCQYCRLQKCFEVGMSKKSVRND [E72K],-0.191 ± 0.062
23,YKPCFVCQDKSSGYHYGVSACEGCKGFFRRSIQKNMIYTCHRDKNCVINKVTRNRCQYCRLQKCFEVGMSKLSVRND [E72L],-0.237 ± 0.051
